One molecule from paper PMC3752698 can be followed below.

This assay has as its target complement component C1q. The experiment in a line: SPR. (In general: In SPR one partner is held on a chip, and binding of the other changes the refractive index at the surface.)

B1: soluble SCARF1 protein (receptor)
chain: SELDPKGQHVCVASSPSAELQCCAGWRQKDQECTIPICEGPDACQKDEVCVKPGLCRCKPGFFGAHCSSRCPGQYWGPDCRESCPCHPHGQCEPATGACQCQADRWGARCEFPCACGPHGRCDPATGVCHCEPGWWSSTCRRPCQCNTAAARCEQATGACVCKPGWWGRRCSFRCNCHGSPCEQDSGRCACRPGWWGPECQQQCECVRGRCSAASGECTCPPGFRGARCELPCPAGSHGVQCAHSCGRCKHNEPCSPDTGSCESCEPGWNGTQCQQPCLPGTFGESCEQQCPHCRHGEACEPDTGHCQRCDPGWLGPRCEDPCPTGTFGEDCGSTCPTCVQGSCDTVTGDCVCSAGYWGPSCNASCPAGFHGNNCSVPCECPEGLCHPVSGSCQPGSGSRDT
In general, Kd refers to a measure of binding affinity in units of concentration. Low values mean higher affinity, high ones lower affinity. In the case of B1, the Kd was determined as 0.124 µM.
